In PMC4368157, “The Interaction Affinity between Vascular Cell Adhesion Molecule-1 (VCAM-1) and Very Late Antigen-4 (VLA-4) Analyzed by Quantitative FRET” (PLoS ONE, 2015) one finds Kd data, which are given here for two molecules.

Test [1] deals with T1, Alexa Fluor 488-VLA-4 conjugate (human recombinant Very late antigen-4, soluble form) (human, UniProt P13612 35-977; P05556 21-728, Alexa Fluor 488 on aliphatic amine groups (amine terminus, ε-amino groups of lysines); F/P ratio of the conjugate 3.0 ± 0.8; sites and chain not stated | Alexa Fluor 488 on aliphatic amine groups …).
T1 construct: integrin α4 subunit (CD49d) of VLA-4, human, recombinant soluble form; integrin β1 subunit (CD29) of VLA-4, human, recombinant soluble form; also called AF488-VLA-4; A488-VLA-4; source: bought: R&D Systems; conjugated with Alexa Fluor 488 succinimidyl ester, dialysed
T1 sequence (P13612 35-977, chain 1 of 2): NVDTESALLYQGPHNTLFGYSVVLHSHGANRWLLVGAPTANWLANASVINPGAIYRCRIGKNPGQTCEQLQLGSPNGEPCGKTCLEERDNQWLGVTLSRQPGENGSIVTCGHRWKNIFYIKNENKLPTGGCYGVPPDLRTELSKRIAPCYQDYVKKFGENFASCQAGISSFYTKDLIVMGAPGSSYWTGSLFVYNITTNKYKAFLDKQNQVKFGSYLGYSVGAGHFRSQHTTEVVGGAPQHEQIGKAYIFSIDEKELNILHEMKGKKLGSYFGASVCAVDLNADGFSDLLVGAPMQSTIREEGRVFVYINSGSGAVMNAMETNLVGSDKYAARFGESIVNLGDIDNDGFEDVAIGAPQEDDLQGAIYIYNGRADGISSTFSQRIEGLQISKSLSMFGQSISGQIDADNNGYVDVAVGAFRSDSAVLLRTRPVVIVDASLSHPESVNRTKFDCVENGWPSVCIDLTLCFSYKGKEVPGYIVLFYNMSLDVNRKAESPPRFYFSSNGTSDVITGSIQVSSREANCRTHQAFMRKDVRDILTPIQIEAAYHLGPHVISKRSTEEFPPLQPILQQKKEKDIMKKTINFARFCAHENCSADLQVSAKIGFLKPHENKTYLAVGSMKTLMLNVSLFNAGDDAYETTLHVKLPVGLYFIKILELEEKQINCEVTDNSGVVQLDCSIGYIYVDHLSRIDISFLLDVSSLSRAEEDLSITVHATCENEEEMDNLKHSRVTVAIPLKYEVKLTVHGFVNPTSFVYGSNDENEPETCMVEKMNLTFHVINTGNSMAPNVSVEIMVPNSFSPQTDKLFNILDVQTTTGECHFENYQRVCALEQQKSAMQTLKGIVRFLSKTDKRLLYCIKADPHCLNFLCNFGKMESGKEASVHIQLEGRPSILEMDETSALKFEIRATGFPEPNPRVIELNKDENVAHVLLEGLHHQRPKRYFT
T1 sequence (P05556 21-728, chain 2 of 2): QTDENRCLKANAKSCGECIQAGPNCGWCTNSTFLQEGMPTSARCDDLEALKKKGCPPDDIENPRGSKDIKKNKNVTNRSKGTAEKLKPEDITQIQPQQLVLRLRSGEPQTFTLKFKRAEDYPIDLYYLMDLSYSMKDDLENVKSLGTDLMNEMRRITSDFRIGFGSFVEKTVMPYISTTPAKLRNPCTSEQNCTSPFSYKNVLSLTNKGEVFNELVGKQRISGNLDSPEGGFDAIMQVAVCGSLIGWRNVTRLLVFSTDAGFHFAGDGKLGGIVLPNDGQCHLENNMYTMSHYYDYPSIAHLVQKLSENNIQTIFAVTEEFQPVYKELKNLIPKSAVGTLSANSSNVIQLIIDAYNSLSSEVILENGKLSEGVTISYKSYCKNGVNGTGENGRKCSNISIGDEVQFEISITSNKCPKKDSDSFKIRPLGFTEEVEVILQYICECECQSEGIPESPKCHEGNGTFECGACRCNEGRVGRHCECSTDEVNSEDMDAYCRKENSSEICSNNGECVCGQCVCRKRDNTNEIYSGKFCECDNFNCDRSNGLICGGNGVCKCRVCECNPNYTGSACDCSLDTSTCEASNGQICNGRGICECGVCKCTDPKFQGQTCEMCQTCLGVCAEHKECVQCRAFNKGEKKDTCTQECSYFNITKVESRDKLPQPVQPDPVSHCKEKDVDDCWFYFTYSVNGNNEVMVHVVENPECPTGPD
Briefly: FRET or BRET; in solution, steady state; donor AF488-VLA-4 fixed at 350 nM, acceptor AF546-VCAM-1 titrated up to 850 nM; PBS with 1 mM EGTA, 2 mM MgCl2, pH 7.4, 30 minutes, 96-well plate; excitation 470 nm; fit assumes one-to-one interaction. Particulars: both partners purified. Background: Bioluminescence resonance energy transfer reports proximity on the nanometre scale.

Test [2] has as its target T2, human recombinant VLA-4 (Very late antigen-4, soluble form, without fluorophore) (human, UniProt P13612 35-977; P05556 21-728).
T2 construct: integrin α4 subunit (CD49d) of VLA-4, human, recombinant soluble form; integrin β1 subunit (CD29) of VLA-4, human, recombinant soluble form; Same bought protein as in m1, not conjugated; also called CD49d/CD29; α4β1; source: bought: R&D Systems
Nature of the test: SPR; BIAcore 3000, CM5 chip; VCAM-1Fc captured by immobilised anti-human IgG (Fc); VLA-4 flowed at 100, 150, 400, 450 and 500 nM; PBS with 1 mM EGTA and 2 mM Mg2+; 5 μl/min; Langmuir model. Particulars: both partners purified.

T2 sequence (P13612 35-977, chain 1 of 2): as the sequence (P13612 35-977, chain 1 of 2) above
T2 sequence (P05556 21-728, chain 2 of 2): as the sequence (P05556 21-728, chain 2 of 2) above

B1: Alexa Fluor 546-VCAM-1 conjugate (human recombinant Vascular Cell Adhesion Molecule-1, soluble form) (ligand, UniProt P19320 25-698, looked up)
chain: FKIETTPESRYLAQIGDSVSLTCSTTGCESPFFSWRTQIDSPLNGKVTNEGTTSTLTMNPVSFGNEHSYLCTATCESRKLEKGIQVEIYSFPKDPEIHLSGPLEAGKPITVKCSVADVYPFDRLEIDLLKGDHLMKSQEFLEDADRKSLETKSLEVTFTPVIEDIGKVLVCRAKLHIDEMDSVPTVRQAVKELQVYISPKNTVISVNPSTKLQEGGSVTMTCSSEGLPAPEIFWSKKLDNGNLQHLSGNATLTLIAMRMEDSGIYVCEGVNLIGKNRKEVELIVQEKPFTVEISPGPRIAAQIGDSVMLTCSVMGCESPSFSWRTQIDSPLSGKVRSEGTNSTLTLSPVSFENEHSYLCTVTCGHKKLEKGIQVELYSFPRDPEIEMSGGLVNGSSVTVSCKVPSVYPLDRLEIELLKGETILENIEFLEDTDMKSLENKSLEMTFIPTIEDTGKALVCQAKLHIDDMEFEPKQRQSTQTLYVNVAPRDTTVLVSPSSILEEGSSVNMTCLSQGFPAPKILWSRQLPNGELQPLSENATLTLISTKMEDSGVYLCEGINQAGRSRKEVELIIQVTPKDIKLTAFPSESVKEGDTVIISCTCGNVPETWIILKKKAETGDTVLKSIDGAYTIRKAQLKDAGVYECESKNKVGSQLRSLTLDVQGRENNKDYFSPE
modifications: Alexa Fluor 546 on aliphatic amine groups (amine terminus, ε-amino groups of lysines); F/P ratio 0.60 ± 0.02; sites not stated
notes: Vascular Cell Adhesion Molecule-1 (VCAM-1/CD106), human, recombinant soluble form; also called AF546-VCAM-1; CD106; source: bought: R&D Systems; conjugated with Alexa Fluor 546 succinimidyl ester, dialysed
One may read the Kd as the constant that tells how readily two partners part at equilibrium. Consider B1, for which the Kd in test [1] was found to be 41.8 nM.

B2: human recombinant VCAM-1 Fc chimera (Fc fusion, UniProt P19320 25-698, looked up)
chain: FKIETTPESRYLAQIGDSVSLTCSTTGCESPFFSWRTQIDSPLNGKVTNEGTTSTLTMNPVSFGNEHSYLCTATCESRKLEKGIQVEIYSFPKDPEIHLSGPLEAGKPITVKCSVADVYPFDRLEIDLLKGDHLMKSQEFLEDADRKSLETKSLEVTFTPVIEDIGKVLVCRAKLHIDEMDSVPTVRQAVKELQVYISPKNTVISVNPSTKLQEGGSVTMTCSSEGLPAPEIFWSKKLDNGNLQHLSGNATLTLIAMRMEDSGIYVCEGVNLIGKNRKEVELIVQEKPFTVEISPGPRIAAQIGDSVMLTCSVMGCESPSFSWRTQIDSPLSGKVRSEGTNSTLTLSPVSFENEHSYLCTVTCGHKKLEKGIQVELYSFPRDPEIEMSGGLVNGSSVTVSCKVPSVYPLDRLEIELLKGETILENIEFLEDTDMKSLENKSLEMTFIPTIEDTGKALVCQAKLHIDDMEFEPKQRQSTQTLYVNVAPRDTTVLVSPSSILEEGSSVNMTCLSQGFPAPKILWSRQLPNGELQPLSENATLTLISTKMEDSGVYLCEGINQAGRSRKEVELIIQVTPKDIKLTAFPSESVKEGDTVIISCTCGNVPETWIILKKKAETGDTVLKSIDGAYTIRKAQLKDAGVYECESKNKVGSQLRSLTLDVQGRENNKDYFSPE
notes: Vascular Cell Adhesion Molecule-1 (VCAM-1/CD106), human, recombinant soluble form fused to Fc; source: bought: R&D Systems
In the case of B2, the Kd in test [2] is 39.6 ± 1.78 nM.
